# Source: patent US20080003614
# Experiments:
# [1] = tested on: 35S-labeled FLAG-MAVS (in vitro translated)
# [2] = tested on: 35S-labeled FLAG-MAVS-C508R (in vitro translated)
Substance,"cleavage of 35S-labeled MAVS in vitro (SDS-PAGE, PhosphorImaging) [1]","cleavage of 35S-labeled MAVS in vitro (SDS-PAGE, PhosphorImaging) [2]"
"Flag-NS3/4A (S139A), protease-dead mutant","the wild type MAVS was cleaved by the active NS3/4A protease, but not the inactive NS3/4A mutant",–
Flag-NS3/4A (wild type hepatitis C virus NS3/4A serine protease),the wild type MAVS was cleaved by the active NS3/4A protease,a point mutation at Cys-508 completely blocked the cleavage of MAVS by NS3/4A in vitro
